We go through 2 molecules from patent US20250313648A1 (REGENTS OF THE UNIVERSITY OF MINNESOTA, published 2025).

In experiment [1] the target is T1, chondroitin sulfate proteoglycan 4 (CSPG4) (human, UniProt Q6UVK1 30-2322).
T1 construct: whole, on cells; Endogenous full-length CSPG4 of human ovarian cancer cell lines, on the cell surface or in cell lysates for western blot; also called CSPG4 core protein
Description: identified by the methods of Example 6 (hybridoma raised against the CSPG4 fragment).

Experiment [2] has as its target T1, chondroitin sulfate proteoglycan 4 …. Description: western blot on mock and CSPG4-CRISPR cell lysates; immunofluorescence of cells. As for the experimental part: FIGS. 1A-1D. Antibody 7H5A2 targets CSPG4. FIG. 1A) Amino acid sequence of recombinant protein target used to generate antibody 7H5A2 (SEQ ID NO:34). Black text denotes CSPG4 region (SEQ ID NO:33), the lighter gray text corresponds to human FC sequence for protein purification. […] Cells are harvested in lysis buffer and 40 μg protein was loaded in each well from the indicated mock and CSPG4-CRISPR cell lines. Alpha-tubulin is included as a loading control. FIG. 1D) Immunofluorescence staining of HEY parent cells with antibody 7H5A2. Red bar=10 μm. Magnification 600×.
Generation of novel CSPG4 antibody: CSPG4-specific mouse monoclonal antibody 7H5A2 was generated by Promab Biotechnologies Inc (Richmond, CA) by injection of a recombinant CSPG4 protein immunogen corresponding to aa 1538-2221 of the CSPG4 core protein extracellular domain, expressed and purified from a eukaryotic expression system (see FIG. 1A). The specificity of the antibody was determined by screening against CSPG4 wild type and knockout cell lysates via western blot and cell staining via immunofluorescence (see FIGS. 1B and 1C). 7H5A2 is isotype IgG1.

T1 sequence (Q6UVK1 30-2322): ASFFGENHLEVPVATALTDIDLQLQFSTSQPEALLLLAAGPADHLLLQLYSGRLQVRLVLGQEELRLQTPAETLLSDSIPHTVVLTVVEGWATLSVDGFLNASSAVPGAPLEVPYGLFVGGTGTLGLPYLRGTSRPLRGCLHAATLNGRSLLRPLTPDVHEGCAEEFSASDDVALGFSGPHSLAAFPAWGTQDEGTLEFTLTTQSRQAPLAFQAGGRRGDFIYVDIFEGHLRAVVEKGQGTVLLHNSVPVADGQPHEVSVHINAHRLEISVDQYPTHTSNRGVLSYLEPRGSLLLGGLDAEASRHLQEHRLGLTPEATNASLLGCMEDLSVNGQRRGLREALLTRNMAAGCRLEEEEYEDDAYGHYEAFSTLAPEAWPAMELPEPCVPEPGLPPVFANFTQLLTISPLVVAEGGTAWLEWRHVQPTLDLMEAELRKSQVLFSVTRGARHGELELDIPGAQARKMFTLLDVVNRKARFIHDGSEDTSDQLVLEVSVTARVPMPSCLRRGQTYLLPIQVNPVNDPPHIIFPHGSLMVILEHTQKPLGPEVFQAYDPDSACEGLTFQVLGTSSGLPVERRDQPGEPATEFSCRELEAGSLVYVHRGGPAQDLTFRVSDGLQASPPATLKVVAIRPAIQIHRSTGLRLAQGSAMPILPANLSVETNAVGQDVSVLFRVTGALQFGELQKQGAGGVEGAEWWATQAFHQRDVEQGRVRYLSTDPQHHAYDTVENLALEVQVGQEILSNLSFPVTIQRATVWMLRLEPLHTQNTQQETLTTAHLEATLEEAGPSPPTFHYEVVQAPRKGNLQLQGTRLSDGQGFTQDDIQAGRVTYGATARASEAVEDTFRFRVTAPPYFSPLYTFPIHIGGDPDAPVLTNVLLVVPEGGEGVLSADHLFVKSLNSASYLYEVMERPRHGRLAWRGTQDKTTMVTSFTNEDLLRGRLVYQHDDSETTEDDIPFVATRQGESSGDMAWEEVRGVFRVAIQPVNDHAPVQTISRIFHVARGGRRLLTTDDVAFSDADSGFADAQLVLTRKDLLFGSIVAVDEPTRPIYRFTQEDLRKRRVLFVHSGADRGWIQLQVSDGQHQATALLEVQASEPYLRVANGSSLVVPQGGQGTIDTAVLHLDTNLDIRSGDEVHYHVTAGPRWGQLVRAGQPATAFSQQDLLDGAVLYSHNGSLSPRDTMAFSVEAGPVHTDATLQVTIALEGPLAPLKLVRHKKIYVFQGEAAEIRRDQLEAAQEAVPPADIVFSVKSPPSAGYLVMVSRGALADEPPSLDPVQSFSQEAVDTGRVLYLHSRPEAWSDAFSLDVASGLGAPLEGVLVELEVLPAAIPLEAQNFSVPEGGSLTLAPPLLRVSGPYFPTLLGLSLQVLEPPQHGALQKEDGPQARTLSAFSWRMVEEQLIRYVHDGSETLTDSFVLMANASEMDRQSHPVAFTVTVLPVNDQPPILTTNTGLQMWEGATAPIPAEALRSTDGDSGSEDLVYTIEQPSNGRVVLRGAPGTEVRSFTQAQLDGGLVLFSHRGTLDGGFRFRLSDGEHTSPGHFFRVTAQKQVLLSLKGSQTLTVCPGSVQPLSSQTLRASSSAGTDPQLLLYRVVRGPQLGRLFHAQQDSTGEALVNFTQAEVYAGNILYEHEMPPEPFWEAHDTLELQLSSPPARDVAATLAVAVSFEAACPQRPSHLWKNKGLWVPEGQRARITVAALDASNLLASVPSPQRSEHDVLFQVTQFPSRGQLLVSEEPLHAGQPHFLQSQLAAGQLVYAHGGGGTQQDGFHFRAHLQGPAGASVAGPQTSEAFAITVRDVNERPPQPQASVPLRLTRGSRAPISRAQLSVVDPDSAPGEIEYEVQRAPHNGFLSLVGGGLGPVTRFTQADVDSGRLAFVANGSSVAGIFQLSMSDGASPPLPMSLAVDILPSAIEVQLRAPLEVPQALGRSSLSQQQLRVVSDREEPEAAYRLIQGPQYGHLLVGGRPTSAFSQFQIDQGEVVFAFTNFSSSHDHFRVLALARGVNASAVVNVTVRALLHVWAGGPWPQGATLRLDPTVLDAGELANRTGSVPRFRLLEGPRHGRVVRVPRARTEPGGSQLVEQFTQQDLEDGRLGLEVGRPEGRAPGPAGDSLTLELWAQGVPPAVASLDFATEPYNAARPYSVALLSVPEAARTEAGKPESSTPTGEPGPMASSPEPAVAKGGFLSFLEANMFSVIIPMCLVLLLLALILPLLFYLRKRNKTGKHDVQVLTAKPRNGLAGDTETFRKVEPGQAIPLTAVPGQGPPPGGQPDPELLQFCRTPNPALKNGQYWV

B1: anti-CSPG4 antibody 8G5A6 (antibody, V domains shown)
VH: EVQLQQSGPDLVKPGASVKISCKASGYSFTVYYMNWVKQSHGKSLEWIGRIDPNDGGASYNQKFKGKAILTVDKSSGTAYMELRSLTSEDSAVYYCARRDYYGSKDYWGQGTTLTVSS
VL: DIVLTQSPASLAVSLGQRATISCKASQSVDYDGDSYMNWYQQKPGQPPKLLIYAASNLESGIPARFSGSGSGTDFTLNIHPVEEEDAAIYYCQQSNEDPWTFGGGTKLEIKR
For B1, the binding result in experiment [1] was “binds”.

B2: CSPG4-specific mouse monoclonal antibody 7H5A2 (antibody, IgG1, V domains shown)
VH: QVQLQQSGAELVRPGSSVKISCKASGFAFSNYWMNWVKQRPGQGLEWIGQIFPGDGDTNYNGKFKGKATLTADKSSSTAYMQLISLTSEDSAVYFCVRESDWGRGTTLTVSS
VL: DIQMTQTTSSLSASLGDRVTISCSASQGINNYLNWYQQTPDGTVKLLIFYTSSLQSGVPSRFSGSGSGTDYSLTISNLEPEDIATYYCQQYSKLPFTFGSGTKLEIKR
notes: also called anti-CSPG4 antibody 7H5A2
For the molecule B2, the binding result in experiment [2] is recorded as “binds”.
